# Assay results reported in the supplement of paper PMC10065799, “High-throughput profiling of sequence recognition by tyrosine kinases and SH2 domains using bacterial peptide display” (eLife, 2023).
# Tested on: c-Abl (mouse)
# Assay: phosphorylation enrichment, bacterial display (enrichment ratio); higher = better substrate or ligand; peptides without Tyr show the background
# 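Also: 11-residue human phosphosite peptides and single-mutation variants displayed on the E. coli surface, counted by deep sequencing, each peptide's frequency after selection divided by its frequency in the unselected input library; frequency after pTyr selection over input frequency; kinase dosed for 20-30% of maximal phosphorylation in three min.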
row,Sequence,phosphorylation enrichment
1,RLRKFHLGKFL [KLB_Y906_Y906H_YF],0.948
2,STEAIYRRFSK [SH3PXD2B_Y42_YF],1.2
3,CEETFYTMKVN [MASP2_Y401],0.9
4,NTGYYYDLYGG [PTPN11_Y63_D61Y],0.971
5,RLSELYLRRNR [CFAP410_Y68],1.1
6,KLQKFYRKNPD [EHHADH_Y683_Q685K_YF],0.549
7,KLLLKYSFHDA [RNF213_Y4141_V4146A],0.616
8,YQKDVYDIPPS [NEDD9_Y177],0.734
9,ERNARYRTPKI [PTK2B_Y699],0.527
10,DSASAYADEVK [ETNPPL_Y189],0.685
11,VNNLVYENING [FRS2_Y306_K303N],0.703
12,PVFQVYPLLNC [GATA1_Y78],1.13
13,LFHENYNAGTY [CFI_Y421_I416L],1.22
14,CQAHGYFCQLI [STK11_Y156],0.514
15,FSPGSNERETF [NF1_Y2192_Y2192N],0.599
16,EHTTLYSNNST [KANSL1_Y223],0.487

row,Sequence,phosphorylation enrichment
1,SVVVPYAPPEV [TP53_Y220_E221A],0.73
2,GFPVHYTDMSN [DNMT3B_Y815_V818M],0.568
3,PIGRKYKKVRF [F8_Y442_R437P],0.661
4,VRHRRYKHTHE [CTCF_Y343],0.816
5,FVTCTYSPALN [TP53_Y126_S121F],0.828
6,RYMELYDLNRD [BBS2_Y648],0.993
7,FPDFVYKCIKA [DPYSL2_Y479_R481C],0.95
8,SWDKRYCEAGF [ITGA2B_Y197],0.687
9,NELTFYCCKKD [CD59_Y87_YF],0.808
10,KNKNRYKNVLP [PTPN11_Y279_I282V],0.881
11,FVSAAYVKKLD [SPTAN1_Y1020_P1017S],0.511
12,PLDGEYLTLQI [TP53_Y327_F328L],2.16
13,FVSIVYNDFGE [TSC2_Y1650_S1653F],0.725
14,KEAALYPHLLP [SQSTM1_Y383_P387L],0.549
15,GREEFYVHFVG [KAT8_Y90_YF],0.896
16,LSCVIYVILRK [PMP22_Y153_G150C],1.39

# Tested on: c-Src
# Assay: as above
row,Sequence,phosphorylation enrichment
1,AEMTGYVVTRW [MAPK13_Y182],0.486
2,EQKKFYNATKK [SCN5A_Y1495_M1498T_YF],0.554
3,RLRKFHLGKFL [KLB_Y906_Y906H_YF],0.792
4,STEAIYRRFSK [SH3PXD2B_Y42_YF],0.45
5,CEETFYTMKVN [MASP2_Y401],1.41
6,NTGYYYDLYGG [PTPN11_Y63_D61Y],4.67
7,RLSELYLRRNR [CFAP410_Y68],0.931
8,KLQKFYRKNPD [EHHADH_Y683_Q685K_YF],0.48
9,KLLLKYSFHDA [RNF213_Y4141_V4146A],0.385
10,YQKDVYDIPPS [NEDD9_Y177],3.26
11,ERNARYRTPKI [PTK2B_Y699],0.351
12,DSASAYADEVK [ETNPPL_Y189],0.638
13,VNNLVYENING [FRS2_Y306_K303N],5.42
14,PVFQVYPLLNC [GATA1_Y78],0.697
15,LFHENYNAGTY [CFI_Y421_I416L],1.3
16,CQAHGYFCQLI [STK11_Y156],0.428
17,FSPGSNERETF [NF1_Y2192_Y2192N],0.424

row,Sequence,phosphorylation enrichment
1,EHTTLYSNNST [KANSL1_Y223],0.455
2,SVVVPYAPPEV [TP53_Y220_E221A],0.427
3,GFPVHYTDMSN [DNMT3B_Y815_V818M],0.416
4,PIGRKYKKVRF [F8_Y442_R437P],0.587
5,VRHRRYKHTHE [CTCF_Y343],0.788
6,FVTCTYSPALN [TP53_Y126_S121F],0.535
7,RYMELYDLNRD [BBS2_Y648],4.49
8,FPDFVYKCIKA [DPYSL2_Y479_R481C],0.595
9,SWDKRYCEAGF [ITGA2B_Y197],0.426
10,NELTFYCCKKD [CD59_Y87_YF],0.436
11,KNKNRYKNVLP [PTPN11_Y279_I282V],0.449
12,FVSAAYVKKLD [SPTAN1_Y1020_P1017S],0.382
13,PLDGEYLTLQI [TP53_Y327_F328L],1.14
14,FVSIVYNDFGE [TSC2_Y1650_S1653F],0.856
15,KEAALYPHLLP [SQSTM1_Y383_P387L],0.366
16,GREEFYVHFVG [KAT8_Y90_YF],0.693
17,LSCVIYVILRK [PMP22_Y153_G150C],1.06

# Target: Hck (UniProt P08631)
# Assay: as above
# Chain of Hck (P08631 whole entry, looked up): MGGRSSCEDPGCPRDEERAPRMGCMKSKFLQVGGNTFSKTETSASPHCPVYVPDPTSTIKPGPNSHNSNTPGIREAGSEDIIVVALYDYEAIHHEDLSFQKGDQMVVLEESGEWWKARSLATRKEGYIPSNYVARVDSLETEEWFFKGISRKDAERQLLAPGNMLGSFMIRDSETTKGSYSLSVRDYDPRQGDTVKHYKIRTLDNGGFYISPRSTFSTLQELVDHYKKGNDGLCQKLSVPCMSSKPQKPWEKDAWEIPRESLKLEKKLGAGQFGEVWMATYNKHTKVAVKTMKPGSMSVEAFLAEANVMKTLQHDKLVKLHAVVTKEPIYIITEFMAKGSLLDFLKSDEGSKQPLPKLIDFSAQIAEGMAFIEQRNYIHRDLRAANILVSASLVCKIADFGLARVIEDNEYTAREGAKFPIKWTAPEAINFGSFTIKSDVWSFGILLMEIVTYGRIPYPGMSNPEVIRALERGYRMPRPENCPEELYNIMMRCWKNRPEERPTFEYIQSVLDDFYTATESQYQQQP
row,Sequence,phosphorylation enrichment
1,AEMTGYVVTRW [MAPK13_Y182],0.467
2,EQKKFYNATKK [SCN5A_Y1495_M1498T_YF],0.449
3,RLRKFHLGKFL [KLB_Y906_Y906H_YF],0.63
4,STEAIYRRFSK [SH3PXD2B_Y42_YF],0.379
5,CEETFYTMKVN [MASP2_Y401],0.756
6,NTGYYYDLYGG [PTPN11_Y63_D61Y],6.15
7,RLSELYLRRNR [CFAP410_Y68],0.827
8,KLQKFYRKNPD [EHHADH_Y683_Q685K_YF],0.402
9,KLLLKYSFHDA [RNF213_Y4141_V4146A],0.418
10,YQKDVYDIPPS [NEDD9_Y177],3.38
11,ERNARYRTPKI [PTK2B_Y699],0.351
12,DSASAYADEVK [ETNPPL_Y189],0.653
13,VNNLVYENING [FRS2_Y306_K303N],7.03
14,PVFQVYPLLNC [GATA1_Y78],0.654
15,LFHENYNAGTY [CFI_Y421_I416L],0.527
16,CQAHGYFCQLI [STK11_Y156],0.436
17,FSPGSNERETF [NF1_Y2192_Y2192N],0.484

row,Sequence,phosphorylation enrichment
1,EHTTLYSNNST [KANSL1_Y223],0.568
2,SVVVPYAPPEV [TP53_Y220_E221A],0.43
3,GFPVHYTDMSN [DNMT3B_Y815_V818M],0.417
4,PIGRKYKKVRF [F8_Y442_R437P],0.553
5,VRHRRYKHTHE [CTCF_Y343],0.631
6,FVTCTYSPALN [TP53_Y126_S121F],0.516
7,RYMELYDLNRD [BBS2_Y648],1.89
8,FPDFVYKCIKA [DPYSL2_Y479_R481C],0.563
9,SWDKRYCEAGF [ITGA2B_Y197],0.648
10,NELTFYCCKKD [CD59_Y87_YF],0.46
11,KNKNRYKNVLP [PTPN11_Y279_I282V],0.412
12,FVSAAYVKKLD [SPTAN1_Y1020_P1017S],0.374
13,PLDGEYLTLQI [TP53_Y327_F328L],0.927
14,FVSIVYNDFGE [TSC2_Y1650_S1653F],0.642
15,KEAALYPHLLP [SQSTM1_Y383_P387L],0.438
16,GREEFYVHFVG [KAT8_Y90_YF],0.581

# Tested on: Fer (mouse)
# Assay: as above
row,Sequence,phosphorylation enrichment
1,AEMTGYVVTRW [MAPK13_Y182],0.499
2,EQKKFYNATKK [SCN5A_Y1495_M1498T_YF],0.374
3,RLRKFHLGKFL [KLB_Y906_Y906H_YF],0.415
4,STEAIYRRFSK [SH3PXD2B_Y42_YF],0.402
5,CEETFYTMKVN [MASP2_Y401],0.738
6,NTGYYYDLYGG [PTPN11_Y63_D61Y],3.4
7,RLSELYLRRNR [CFAP410_Y68],0.57
8,KLQKFYRKNPD [EHHADH_Y683_Q685K_YF],0.302
9,KLLLKYSFHDA [RNF213_Y4141_V4146A],0.476
10,YQKDVYDIPPS [NEDD9_Y177],0.611
11,ERNARYRTPKI [PTK2B_Y699],0.313
12,DSASAYADEVK [ETNPPL_Y189],0.53
13,VNNLVYENING [FRS2_Y306_K303N],11.8
14,PVFQVYPLLNC [GATA1_Y78],0.758
15,LFHENYNAGTY [CFI_Y421_I416L],0.822
16,CQAHGYFCQLI [STK11_Y156],0.402
17,FSPGSNERETF [NF1_Y2192_Y2192N],0.538

row,Sequence,phosphorylation enrichment
1,EHTTLYSNNST [KANSL1_Y223],0.602
2,SVVVPYAPPEV [TP53_Y220_E221A],0.474
3,GFPVHYTDMSN [DNMT3B_Y815_V818M],0.419
4,PIGRKYKKVRF [F8_Y442_R437P],0.459
5,VRHRRYKHTHE [CTCF_Y343],0.584
6,FVTCTYSPALN [TP53_Y126_S121F],0.557
7,RYMELYDLNRD [BBS2_Y648],1.14
8,FPDFVYKCIKA [DPYSL2_Y479_R481C],0.533
9,SWDKRYCEAGF [ITGA2B_Y197],0.531
10,NELTFYCCKKD [CD59_Y87_YF],0.461
11,KNKNRYKNVLP [PTPN11_Y279_I282V],0.414
12,FVSAAYVKKLD [SPTAN1_Y1020_P1017S],0.365
13,PLDGEYLTLQI [TP53_Y327_F328L],1.08
14,FVSIVYNDFGE [TSC2_Y1650_S1653F],0.514
15,KEAALYPHLLP [SQSTM1_Y383_P387L],0.419
16,GREEFYVHFVG [KAT8_Y90_YF],0.513

# Target: EPHB2 (UniProt P29323)
# Assay: as above
# Chain of EPHB2 (P29323 whole entry, looked up): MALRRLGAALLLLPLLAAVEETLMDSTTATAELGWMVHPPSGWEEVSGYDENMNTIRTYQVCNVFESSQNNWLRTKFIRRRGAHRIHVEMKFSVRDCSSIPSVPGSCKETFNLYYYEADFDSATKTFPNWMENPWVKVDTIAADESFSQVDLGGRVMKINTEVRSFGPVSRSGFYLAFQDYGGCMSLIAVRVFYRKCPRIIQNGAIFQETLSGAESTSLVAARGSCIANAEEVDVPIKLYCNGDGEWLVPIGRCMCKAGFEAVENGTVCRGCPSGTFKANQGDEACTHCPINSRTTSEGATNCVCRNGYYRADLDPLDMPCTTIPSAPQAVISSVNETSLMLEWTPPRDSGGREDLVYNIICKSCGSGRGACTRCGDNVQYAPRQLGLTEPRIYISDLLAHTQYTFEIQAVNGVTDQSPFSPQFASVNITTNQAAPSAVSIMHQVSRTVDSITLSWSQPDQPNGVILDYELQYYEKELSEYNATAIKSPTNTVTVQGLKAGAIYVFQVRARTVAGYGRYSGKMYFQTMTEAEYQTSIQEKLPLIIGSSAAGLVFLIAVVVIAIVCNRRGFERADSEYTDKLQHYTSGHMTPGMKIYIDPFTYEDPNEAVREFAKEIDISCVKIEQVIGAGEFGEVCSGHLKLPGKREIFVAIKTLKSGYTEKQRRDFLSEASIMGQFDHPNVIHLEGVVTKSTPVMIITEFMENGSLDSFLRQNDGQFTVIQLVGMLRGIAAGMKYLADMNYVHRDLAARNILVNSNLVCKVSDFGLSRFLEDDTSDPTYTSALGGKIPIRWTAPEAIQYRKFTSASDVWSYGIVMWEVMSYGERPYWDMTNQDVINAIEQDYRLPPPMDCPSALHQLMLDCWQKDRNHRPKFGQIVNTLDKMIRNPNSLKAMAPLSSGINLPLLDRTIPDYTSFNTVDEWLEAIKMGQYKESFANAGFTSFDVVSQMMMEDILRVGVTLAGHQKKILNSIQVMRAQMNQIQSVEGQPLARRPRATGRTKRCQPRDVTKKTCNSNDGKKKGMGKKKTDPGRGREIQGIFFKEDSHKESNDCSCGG
row,Sequence,phosphorylation enrichment
1,AEMTGYVVTRW [MAPK13_Y182],0.586
